Assay results from article PMC3355487 (mAbs, 2012).
Like-named read-outs stand apart in the source and are kept apart here.

Columns and labels:
[1] = target: Fc-mROR1 (Mus musculus, UniProt Q9Z139); assay: ELISA
[2] = target: Fc-hROR1Kr (Homo sapiens, UniProt Q01973); assay: ELISA
[3] = target: Fc-hROR1Fz (Homo sapiens, UniProt Q01973); assay: ELISA
[4] = target: Fc-hROR1Fz+Kr (Homo sapiens, UniProt Q01973); assay: ELISA
[5] = target: T1, Fc-hROR1 (Homo sapiens, UniProt Q01973); assay: SPR
[6] = target: T2, hROR1-ECD (Homo sapiens, UniProt Q01973); assay: SPR
[7] = target: T1, Fc-hROR1; assay: SPR; remark: listed apart in the source
[8] = target: T2, hROR1-ECD; assay: SPR; remark: listed apart in the source

T2 sequence (Q01973 30-406): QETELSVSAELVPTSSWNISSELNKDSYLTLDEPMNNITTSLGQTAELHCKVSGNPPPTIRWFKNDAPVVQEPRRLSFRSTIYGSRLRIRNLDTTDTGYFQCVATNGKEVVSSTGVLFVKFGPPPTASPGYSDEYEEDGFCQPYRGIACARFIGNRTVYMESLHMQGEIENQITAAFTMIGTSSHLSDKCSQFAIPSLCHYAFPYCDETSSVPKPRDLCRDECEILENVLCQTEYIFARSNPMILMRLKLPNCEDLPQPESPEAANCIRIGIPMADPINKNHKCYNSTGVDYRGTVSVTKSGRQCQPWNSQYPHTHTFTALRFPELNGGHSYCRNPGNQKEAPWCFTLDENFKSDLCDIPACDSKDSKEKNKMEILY
T1 sequence (Q01973 30-406): as above
Chain of Fc-hROR1Fz (Q01973 165-299): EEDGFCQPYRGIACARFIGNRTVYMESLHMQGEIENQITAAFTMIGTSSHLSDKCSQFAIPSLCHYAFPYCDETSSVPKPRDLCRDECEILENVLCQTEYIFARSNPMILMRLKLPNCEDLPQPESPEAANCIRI
Chain of Fc-mROR1 (Q9Z139 30-406): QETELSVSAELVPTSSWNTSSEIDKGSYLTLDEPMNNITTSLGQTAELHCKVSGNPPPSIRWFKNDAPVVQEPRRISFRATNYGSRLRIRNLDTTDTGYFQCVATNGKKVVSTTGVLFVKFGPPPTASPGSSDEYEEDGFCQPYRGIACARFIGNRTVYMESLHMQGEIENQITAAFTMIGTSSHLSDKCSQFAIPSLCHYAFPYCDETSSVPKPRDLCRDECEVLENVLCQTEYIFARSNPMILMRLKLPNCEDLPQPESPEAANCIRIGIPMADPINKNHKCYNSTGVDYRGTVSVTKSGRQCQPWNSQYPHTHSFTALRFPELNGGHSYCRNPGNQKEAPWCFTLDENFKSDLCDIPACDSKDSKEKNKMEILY

B1: mouse anti-human ROR1 monoclonal antibody 2A2-IgG (antibody, V domains shown)
VH: QVQLQQSGAELVRPGASVTLSCKASGYTFSDYEMHWVIQTPVHGLEWIGAIDPETGGTAYNQKFKGKAILTADKSSSTAYMELRSLTSEDSAVYYCTGYYDYDSFTYWGQGTLVTVSA
VL: DIVMTQSQKIMSTTVGDRVSITCKASQNVDAAVAWYQQKPGQSPKLLIYSASNRYTGVPDRFTGSGSGTDFTLTISNMQSEDLADYFCQQYDIYPYTFGGGTKLEIK
binding result [1]: binds
binding result [2]: no binding
binding result [3]: no binding
binding result [4]: no binding
Kd [5]: 0.79 nM
koff [5]: 0.00018 s⁻¹
kon [5]: 230000 M⁻¹ s⁻¹
Kd [6]: 32.6 nM
koff [6]: 0.00777 s⁻¹
kon [6]: 240000 M⁻¹ s⁻¹
Kd [7]: 0.42 nM
koff [7]: 0.00034 s⁻¹
kon [7]: 810000 M⁻¹ s⁻¹
Kd [8]: 0.12 nM
koff [8]: 0.00018 s⁻¹
kon [8]: 1.52e+06 M⁻¹ s⁻¹
